What was measured:
[1] = target: Cul1^d-N8/Rbx1^∆RING (human) (UniProt Q13616)
[2] = target: Cul1^d-N8/Rbx1^∆RING (human) (UniProt Q13616); remark: listed apart in the source
CUL1 = assay: anti-Flag immunoprecipitation, SILAC mass spectrometry; conditions: HEK293T; mutant in light medium, wild type in heavy medium; read off a plot
CUL2 = assay: as above; conditions: HEK293T; mutant in light medium, wild type in heavy medium; read off a plot
CUL3 = assay: as above; conditions: HEK293T; mutant in light medium, wild type in heavy medium; read off a plot
CUL4A = assay: as above; conditions: HEK293T; mutant in light medium, wild type in heavy medium; read off a plot
CUL4B = assay: as above; conditions: HEK293T; mutant in light medium, wild type in heavy medium; read off a plot
DDB1 = assay: as above; conditions: HEK293T; mutant in light medium, wild type in heavy medium; read off a plot
Elongin B = assay: as above; conditions: HEK293T; mutant in light medium, wild type in heavy medium; read off a plot
Elongin C = assay: as above; conditions: HEK293T; mutant in light medium, wild type in heavy medium; read off a plot
RBX1 = assay: as above; conditions: HEK293T; mutant in light medium, wild type in heavy medium; read off a plot
SKP1 = assay: as above; conditions: HEK293T; mutant in light medium, wild type in heavy medium; read off a plot
[3] = target: COP9-Signalosome (CSN), wild type (human) (UniProt Q13098)

unlabeled Cul1/Rbx1, sequence (Q13616 whole entry): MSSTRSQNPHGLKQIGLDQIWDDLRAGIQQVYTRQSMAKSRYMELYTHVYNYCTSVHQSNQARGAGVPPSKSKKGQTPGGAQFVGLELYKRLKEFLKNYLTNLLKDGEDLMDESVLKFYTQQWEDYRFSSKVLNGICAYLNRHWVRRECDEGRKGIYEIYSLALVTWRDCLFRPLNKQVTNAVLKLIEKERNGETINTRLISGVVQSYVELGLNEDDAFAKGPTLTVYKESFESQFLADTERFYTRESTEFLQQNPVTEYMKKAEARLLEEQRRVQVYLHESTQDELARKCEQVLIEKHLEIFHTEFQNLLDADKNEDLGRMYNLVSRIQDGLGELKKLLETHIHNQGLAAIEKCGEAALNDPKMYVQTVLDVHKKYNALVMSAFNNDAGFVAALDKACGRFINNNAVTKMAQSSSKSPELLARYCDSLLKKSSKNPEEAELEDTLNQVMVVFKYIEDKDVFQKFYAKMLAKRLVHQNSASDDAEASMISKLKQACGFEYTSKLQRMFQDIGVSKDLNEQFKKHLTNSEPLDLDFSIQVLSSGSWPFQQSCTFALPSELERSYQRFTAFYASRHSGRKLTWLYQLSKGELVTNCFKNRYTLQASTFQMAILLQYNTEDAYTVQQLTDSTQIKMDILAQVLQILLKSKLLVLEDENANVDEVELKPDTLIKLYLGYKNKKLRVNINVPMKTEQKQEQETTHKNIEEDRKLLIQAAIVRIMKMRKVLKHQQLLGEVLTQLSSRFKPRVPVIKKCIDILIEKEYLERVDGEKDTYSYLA
unlabeled Cul1/Rbx1, sequence (P62877 whole entry): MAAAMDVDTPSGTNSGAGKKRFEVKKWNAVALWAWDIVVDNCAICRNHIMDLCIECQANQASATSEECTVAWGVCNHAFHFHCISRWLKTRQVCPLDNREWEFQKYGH

A KM of deneddylation of Cul1-N8/Rbx1^∆RING (with the sortase sequence, not dansylated) by CSN [1] of 5 nM was found for “COP9-Signalosome (CSN), wild type (from UniProt Q13098 1-491; P61201 1-443; Q9UNS2 1-423; Q9BT78 1-406; Q92905 1-334; Q7L5N1 1-327; Q9H9Q2 1-264; Q99627 1-209) (complex)” in this work.

A Kd [2] of 13 nM was found for “CSN^5E76A (from UniProt Q13098 1-491; P61201 1-443; Q9UNS2 1-423; Q9BT78 1-406; Q92905 1-334; Q7L5N1 1-327; Q9H9Q2 1-264; Q99627 1-209) (complex)” in this work.

A ratio to parent (CUL1) of 0.9, a ratio to parent (CUL2) of 0.83 and a ratio to parent (CUL3) of 0.75 were found for “Flag-tagged wild type Csn5 (from UniProt Q92905) T103I” in this work. The ratio to parent (CUL4A) was 0.57, the ratio to parent (CUL4B) was 0.63 and the ratio to parent (DDB1) was 0.78. For the same substance, the ratio to parent (Elongin B) was 0.85, the ratio to parent (Elongin C) was 0.8 and the ratio to parent (RBX1) was 0.92. The ratio to parent (SKP1) was 0.88.

An IC50 [3] of 390 nM was found for “unlabeled Cul1/Rbx1 (from UniProt Q13616 1-776; P62877 1-108) (complex)” in this work.
